Molecular target: StCsm effector complex (Cas10-Csm2-Csm3-Csm4-Csm5, StCsm-40), wild type (Streptococcus thermophilus DGCC8004, UniProt A0A0A7HFE1;A0ABF7SXA0;A0A0A7HIF0;A0ABF7SXA2;A0ABF7SXA3 …)
Test: EMSA; gel shift, StCsm-40; value only in figure
Details: tags: N-terminal StrepII on Csm2; chain copies: Cas10:1 Csm2:3 Csm3:5 Csm4:1 Csm5:1 (stated); label: 5'-33P
Procedure: FIGS. 16A-B show in vitro cleavage activity of the StCsm targeted to the GFP transcript. Schematic representation of StCsm bound to the target RNA used for in vitro binding and cleavage assays is presented above the gels. RNA was 5′-end labeled with ³³P as indicated with asterisk. (FIG. 16A) Gel shift assay of RNA binding by StCsm-40. The binding reactions contained the ³³P-labeled GFP RNA (0.5 nM) and StCsm-40 at concentrations indicated by each lane. Samples were analyzed by PAGE under non-denaturating conditions. (FIG. 16B) StCsm-40 cleavage assay. Cleavage reactions were performed at 25° C. for indicated time intervals in the Reaction buffer supplemented with 10 mM Mg-acetate, 8 nM GFP RNA substrate and 160 nM StCsm-40. Samples were analyzed by denaturing PAGE, followed by phosphorimaging. […]
Binding assays were performed by incubating different amounts of Csm complexes with 0.5 nM of ³²P-5′-labeled NA in the Binding buffer (40 mM Tris, 20 mM acetic acid (pH 8.4 at 25° C.), 1 mM EDTA, 0.1 mg/ml BSA, 10% (v/v) glycerol). […] The Kd for NA binding by Csm-72 and Csm-40 was evaluated assuming the complex concentration at which half of the substrate is bound as a rough estimate of Kd value. For binding competition assay 0.5 nM ³²P-labelled S3/1 RNA was mixed with 0.5-5000 nM of unlabelled competitor NA and 0.3 nM StCsm-40, and analyzed by EMSA.

B1: jGFP crRNA 40 nt ; jGFP target RNA (coding-strand DNA sequence printed) (ssRNA ; ssRNA)
RNA 1: ACGGAAACAUAACCUUCGGGCAUGGCACUCUUGAAAAAGU
RNA 2: CAUGACUUUUUCAAGAGUGCCAUGCCCGAAGGUUAU
Question: Does B1 bind?
Answer: binds

— patent US20180105835, “TARGETED RNA KNOCKDOWN AND KNOCKOUT BY TYPE III-A Csm COMPLEXES” (VILNIUS UNIVERSITY, published 2018)
